From patent US20100080812A1 (ROCHE PALO ALTO, published 2010) come the findings set out here.

Some results are limits rather than exact numbers.

Assay [1] addresses recombinant human IL-17 (Peprotech #200-17) (human) (UniProt Q16552). Briefly: cell-based or functional assay.
For assay [2] the target is unchanged. As to the kind of experiment: ELISA, coated IL-17 subtype, antibody 10 µg/ml, OD 405/492 nm. On the technique in general: An ELISA detects its analyte on a solid surface through an enzyme-linked reagent.
The target of assay [3] is T1, human IL-17F (human, UniProt Q96PD4 31-163, limits assumed).
T1 sequence (looked up): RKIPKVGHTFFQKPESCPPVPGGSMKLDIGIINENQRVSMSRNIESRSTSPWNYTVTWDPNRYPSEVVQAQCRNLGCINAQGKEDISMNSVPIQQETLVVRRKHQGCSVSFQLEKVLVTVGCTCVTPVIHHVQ
The assay is described as above.

The target of the next assay is T2, human IL-17B (human, UniProt Q9UHF5 21-180, limits assumed).
T2 sequence (looked up): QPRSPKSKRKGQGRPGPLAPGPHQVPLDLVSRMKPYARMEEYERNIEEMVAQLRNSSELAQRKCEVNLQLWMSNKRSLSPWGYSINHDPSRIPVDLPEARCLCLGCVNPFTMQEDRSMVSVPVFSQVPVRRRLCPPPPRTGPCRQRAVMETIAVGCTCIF
The description is as above.

Another assay has as its target T3, human IL-17D (human, UniProt Q8TAD2 18-202, limits assumed).
T3 sequence (looked up): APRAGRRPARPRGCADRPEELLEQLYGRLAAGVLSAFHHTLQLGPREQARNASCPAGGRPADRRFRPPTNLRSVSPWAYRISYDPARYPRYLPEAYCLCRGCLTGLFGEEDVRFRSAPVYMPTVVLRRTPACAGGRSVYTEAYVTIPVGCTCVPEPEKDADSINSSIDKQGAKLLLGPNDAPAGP
The description is as above.

Another assay has as its target T4, human IL-17E (human, UniProt Q9H293 33-177, limits assumed).
T4 sequence (looked up): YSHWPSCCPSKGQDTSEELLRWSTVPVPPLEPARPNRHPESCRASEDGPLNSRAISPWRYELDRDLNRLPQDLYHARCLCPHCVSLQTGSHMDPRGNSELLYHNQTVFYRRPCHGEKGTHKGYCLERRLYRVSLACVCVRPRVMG
The assay is described as above.

Assay [4] has as its target T5, human IL-17C (human, UniProt Q9P0M4 19-197, limits assumed).
T5 sequence (looked up): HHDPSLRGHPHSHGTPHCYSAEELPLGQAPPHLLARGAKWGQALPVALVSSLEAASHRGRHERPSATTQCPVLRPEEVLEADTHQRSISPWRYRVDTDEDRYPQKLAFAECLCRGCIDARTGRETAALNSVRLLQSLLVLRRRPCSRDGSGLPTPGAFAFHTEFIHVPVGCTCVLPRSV
The assay is described as above.

Assay [5] concerns the target cynomolgus IL-17A (cynomolgus monkey). Briefly: cell-based or functional assay.
Another assay deals with T6, cynomolgus IL-17A (cynomolgus monkey, UniProt A0A2K5TTB0 24-155).
T6 sequence: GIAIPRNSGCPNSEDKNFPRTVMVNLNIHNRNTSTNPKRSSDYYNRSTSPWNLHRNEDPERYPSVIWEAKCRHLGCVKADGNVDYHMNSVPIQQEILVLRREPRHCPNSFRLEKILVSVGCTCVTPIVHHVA
Briefly: cell-based or functional assay.

The target of assay [6] is T7, recombinant human IL-17 (Peprotech #200-17) (human, UniProt Q16552 20-155).
T7 sequence (looked up): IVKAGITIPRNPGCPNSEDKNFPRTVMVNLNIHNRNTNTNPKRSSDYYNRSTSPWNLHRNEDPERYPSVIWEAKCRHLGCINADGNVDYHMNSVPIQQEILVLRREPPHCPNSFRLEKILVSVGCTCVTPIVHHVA
Briefly: cell-based or functional assay.

Assay [7] addresses T1, human IL-17F. Briefly: ELISA on immobilized IL-17 variant.
The target in assay [8] is T5, human IL-17C. As to the kind of experiment: ELISA on immobilized IL-17 variant.
For assay [9], the target named is T7, recombinant human IL-17 (Peprotech …). As to the kind of experiment: ELISA, coated IL-17 subtype, antibody 10 µg/ml, OD 405/492 nm.
The target is the same in assay [10]. Briefly: cell-based or functional assay. The source holds these as a separate data set.

As to MAB 317 of R&D Systems (antibody), in [1], the IL-6 Neutralization IC50 came to 5.5 nM. In assay [1], the IL-8 Neutralization IC50 came to 5.5 nM. For the same molecule, the Binding (IL-17A binding set as 100) (% (IL-17A binding set as 100)) in [2] turned out to be 100; with human IL-17F [3], 0; with human IL-17B, 0; with human IL-17D it was 0; with human IL-17E it was 0; with human IL-17C [4] it was 0.
Consider “Mab 16-7178-85 of eBioscience (antibody)”, for which the Binding (IL-17A binding set as 100) (% (IL-17A binding set as 100)) in [2] turned out to be 100; with human IL-17F [3] it was 5; in the assay with human IL-17B, 7; with human IL-17D, 6; in the assay with human IL-17E it was 5; with human IL-17C [4], 97.
Regarding NVP-AIN-497 (WO 2006013107) (antibody), the IL-6 Neutralization IC50 (nM) (using 100 ng/ml IL-17A) is 5 nM in assay [1] and over 10 nM in assay [5]. For the same molecule, the IL-8 Neutralization IC50 (nM) (using 100 ng/ml IL-17A) is 4.2 nM in assay [1] and over 10 nM in assay [5]. The Binding (IL-17A binding set as 100) (% (IL-17A binding set as 100)) stood at 100 in assay [2]; 62 with human IL-17F [3]; 2 in the assay with human IL-17B; 0 in the assay with human IL-17D; 3 in the assay with human IL-17E; 2 in the assay with human IL-17C [4].

B1: Mab 106 (antibody, V domains shown)
VH: EVQLVESGGGLVQPGGSLRLSCAASGFTFSDYTMLWVRQAPGKGLEWVAIIKSGGSYSYYPDSVKGRFTISRDNAKNSLYLQMNSLRAEDTAVYYCARDGDYGSSYGAMDYWGQGTLVTVSS
VL: DIQMTQSPSSLSASVGDRVTITCRASQDINSYLSWFQQKPGKAPKSLIYRANRLVDGVPSRFSGSGSGQDYSLTISSLQPEDFATYYCLQYDAFPPYTFGQGTKLEIK
notes: Humanized version of 3C1; Only the variable domains are tied to it; also called Mab K106
As to B1, the “IL-6 Neutralization IC50 (nM) (using 100 ng/ml IL-17A)” value with cynomolgus IL-17A came to 0.7 nM; in assay [10], 2.1 nM. Also, the “IL-8 Neutralization IC50 (nM) (using 100 ng/ml IL-17A)” value came to 0.6 nM with cynomolgus IL-17A and 1.6 nM in assay [10]. Moreover, the “IL-6 Neutralization IC50” value in assay [6] stood at 1 nM. Further, the “IL-8 Neutralization IC50” value in assay [6] is 1 nM. The binding result with human IL-17F [7] and in the assay with human IL-17C [8] was “no binding (tested: S/N ratio lower than 7:1)” in each case. For the same molecule, the “Binding (IL-17A binding set as 100)” value in the assay with human IL-17F [3] was 0 % (IL-17A binding set as 100); with human IL-17B, 0 % (IL-17A binding set as 100); with human IL-17D, 0 % (IL-17A binding set as 100); in the assay with human IL-17E, 1 % (IL-17A binding set as 100); with human IL-17C [4] it was 0 % (IL-17A binding set as 100); in [9] it was 100 % (IL-17A binding set as 100).
